Our source for the binding relative to OsMADS2wt with SPW1^wt (fold of OsMADS2wt-SPW1^wt binding) values is patent EP2019137A1.

This experiment deals with wild-type SPW1 protein (SUPERWOMAN1, AP3-type class-B MADS-box protein of rice), M, I and K domains, yeast two-hybrid construct (rice (Oryza sativa)). Description: yeast two-hybrid, LacZ reporter.

As for “V45T mutant-type protein of OsMADS2, M, I and K domains, yeast two-hybrid construct”, the binding relative to OsMADS2wt with SPW1^wt (fold of OsMADS2wt-SPW1^wt binding) came out at 0.5.
